# Experimental data as given in patent US8034783B2, “Prodomain modulators of ADAM 10” (Biozyme, Inc., priority 2006, dated 2011).
# T1: ADAM 10 (human) Cat/Dis (Homo sapiens, UniProt O14672)
# T1 construct: containing the catalytic/disintegrin domains; purchased R & D Systems (Minneapolis, Minn., USA)
# T1 sequence (O14672 214-672 limits assumed): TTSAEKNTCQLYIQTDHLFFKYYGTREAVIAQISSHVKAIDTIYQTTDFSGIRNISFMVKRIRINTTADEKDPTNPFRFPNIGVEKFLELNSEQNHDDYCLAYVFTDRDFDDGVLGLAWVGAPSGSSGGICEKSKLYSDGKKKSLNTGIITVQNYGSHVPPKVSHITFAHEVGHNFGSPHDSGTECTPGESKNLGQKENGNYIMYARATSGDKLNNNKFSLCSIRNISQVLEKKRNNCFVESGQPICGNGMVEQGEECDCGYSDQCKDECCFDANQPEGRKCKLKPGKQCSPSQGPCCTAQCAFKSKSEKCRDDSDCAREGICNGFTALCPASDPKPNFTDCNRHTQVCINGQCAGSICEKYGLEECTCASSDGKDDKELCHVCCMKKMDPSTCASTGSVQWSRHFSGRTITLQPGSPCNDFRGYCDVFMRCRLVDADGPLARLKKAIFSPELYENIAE
# T2: ADAM 8 (mouse) catalytic domain (Mus musculus, UniProt Q05910)
# T2 construct: The ADAM 8 catalytic domain was expressed and purified from E. coli as described (22); made in house; host or cells: E. coli
# T2 sequence (Q05910 196-395 limits assumed): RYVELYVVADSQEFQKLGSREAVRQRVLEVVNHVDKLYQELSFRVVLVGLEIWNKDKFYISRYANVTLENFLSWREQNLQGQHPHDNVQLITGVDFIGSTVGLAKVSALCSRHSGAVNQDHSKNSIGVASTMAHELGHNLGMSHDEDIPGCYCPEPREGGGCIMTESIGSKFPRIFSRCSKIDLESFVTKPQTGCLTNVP
# Columns and labels:
# [1] = target: T1, ADAM 10 (human) Cat/Dis; test: Inhibition assay with ADAM10 catalytic/disintegrin construct, fluorescent substrate; format: biochemical; settings: room temperature, 10 μM fluorescent substrate; read-out: inhibition constant (Ki), ADAM 10 (human) Cat/Dis
# Experimental: Inhibition assays with TACE and ADAM 10. Activity of TACE catalytic/disintegrin, TACE catalytic, or ADAM10 catalytic/disintegrin constructs was monitored at 3 minute intervals using the fluorescent substrate, Dabcyl-LAQAHomoPheRSC(Fluorescein)-NH2 (SEQ ID NO 17) with excitation 485 nm and emission 530 nm. The substrate was diluted from a 10 mM stock in DMSO to 10 μM in assay buffer containing 20 mM Tris, pH 8.0, and 0.0006% Brij-35. Reactions were run in a 96-well black-coated plate with either ADAM10 prodomain (10 nM-1.0 μM) alone or with enzyme. Concentrations of enzyme ranged from 0.5-2.0 nM for TACE and 5-15 nM for ADAM10. For assays with TACE and ADAM8 prodomain, the range of concentrations varied from 1-4.7 μM.
# Calculation of inhibition constants. The amount of activity was calculated by subtracting the ADAM 10 prodomain control from the ADAM 10 prodomain with enzyme. All inhibition assays were performed at room temperature and the data fit to the following equation using Sigma Plot software:
# [formula] where If is fractional inhibition, I is the inhibitor concentration and Ki is the inhibition constant.
# Wild type ADAM 10 prodomain (23-213) was tested to determine the mode of inhibition of ADAM 10 protein. ADAM 10 protein was diluted 1:100 in buffer 25 mM Tris pH 8, 0.0006% Brij-35 and then 10 μl was added to 88 μl of substrate (20-100 μM), Dabcyl-LAQAHomoPheRSC(Fluorescein)-NH2 with excitation 485 nm and emission 530 nm. Prodomain, 2 μl, in 25 mM Tris, pH 8, 100 mM NaCl, 10% glycerol, 0.1% mercaptoethanol, and 50 μM CaCl2 was added to substrate before addition of enzyme. The final concentration of prodomain ranged from 17-170 nM. The fluorescence vs time was plotted, and slopes were taken from straight line fits of initial velocities. The reciprocal of the velocities was plotted vs the reciprocal of substrate squared since the normal Lineweaver Burke plot gave curved lines. The initial velocities vs substrate concentrations were fit as a family of curves to several allosteric models.
# [2] = system: CD23 shedding in Ramos cells; test: CD23 release from Ramos cells, soluble CD23 ELISA; format: cell-based; settings: 150-600 nM, IL-4, 24 hr, FIG. 2A
# Experimental: ADAM 10 prodomains were also tested in assays to determine if ADAM 10 protein functions as a CD23 sheddase. Cells (100,000 per well) were seeded in round-bottomed 96-well plates (Sarstedt, Newton, N.C.) in 0.2 ml of media supplemented with IL-4 with inhibitors (A10 23-215 150-600 nM, GM6001 10-50 μM, TAPI-2 10-50 μM, or TIMPs 250 nM) or vehicle controls (A10 23-215 buffer: 25 mM NaH2PO4 pH 7.0, 125 mM KCl, 75 mM NaCl 20% glycerol, PBS, or dimethyl sulfoxide). Cells were cultured for 24 hr. The conditioned medium was harvested by centrifugation (2000×g, 15 min). The conditioned medium was assayed by ELISA for soluble CD23 according to the manufacturers' instructions (BD Biosciences, Invitrogen).
# [3] = target: T2, ADAM 8 (mouse) catalytic domain; test: Inhibition assay with ADAM 8 catalytic domain; format: biochemical; settings: fluorescamine assay; read-out: inhibition constant, ADAM 8 (mouse)
# Experimental: Inhibition assays with ADAM 8. The ADAM 8 catalytic domain was expressed and purified from E. coli as described (22). A substrate based on the L-selectin cleavage site, Dnp-INorIeuQKLDKSFSMIKE-NH2 (SEQ ID NO 20), was used to monitor enzyme activity with a fluorescamine assay. From a concentrated 50 mM solution in DMSO, the substrate was diluted 1:500 in 25 mM HEPES, pH 8.0, 0.0006% Brij-35. To 100 μl of diluted substrate was added either 5 μl of buffer (Tris, pH 8.0, 150 mM KCl) or 5 μl of ADAM10 prodomain (1-10 μM). Zero time points were taken by diluting 12.5 μl of the reaction mixture into 100 μl of fluorescamine buffer (50 mM HEPES, pH 8.0, 0.2 M NaCl, 0.01 M CaCl2, 0.01% Brij-35) in a 96-well black-coated plate. Before measuring fluorescence, 3 μl of a 1% solution of fluorescamine in DMSO was added to each well. The plate was allowed to incubate for 10 min in the dark before measuring fluorescence (excitation wavelength at 390 nm, emission wavelength at 485 nm). For assays with TACE and ADAM8 prodomains, a fluorescent substrate was used to monitor activity at concentrations of prodomains ranging from 1-4.7 μM.
# Calculation of inhibition constants. The amount of activity was calculated by subtracting the ADAM 10 prodomain control from the ADAM 10 prodomain with enzyme. […]
molecule,measurement,setting,value
"C173S ProADAM 10 23-213 (C-terminal His tag): mouse ADAM 10 prodomain 23-213 with cysteine 173 mutated to serine, C-terminal His tag (protein, UniProt O35598 23-213, looked up, variant C173S, pro-form C-terminal His tag, mouse ADAM 10 prodomain 23-213 with cysteine 173 mutated to serine, C-terminal His tag) NPLNKYIRHYEGLSYNVDSLHQKHQRAKRAVSHEDQFLLLDFHAHGRQFNLRMKRDTSLFSDEFKVETSNKVLDYDTSHIYTGHIYGEEGSFSHGSVIDGRFEGFIKTRGGTFYIEPAERYIKDRILPFHSVIYHEDDINYPHKYGPQGGSADHSVFERMRKYQMTGVEEGARAHPEKHAASSGPELLRKK",Ki,[1],36 ± 9 nM
same,"inhibition of CD23 shedding, Ramos cells",[2],about 30%
same,Ki,[3],> 10000 nM
